Results on 43 variants are retold here after the Human Domainome abundance scans (Beltran et al. 2025).

± gives the uncertainty stated by the source.

B1: Dystrobrevin alpha, residues 235 to 294; numbered along this chain, Q9Y4J8 (parent)
chain: ENVFHPVECSYCHSESMMGFRYRCQQCHNYQLCQDCFWRGHAGGSHSNQHQMKEYTSWKS

This data set covers variants of B1. Description: abundance fitness (aPCA) (normalised: wild type 0, dead -1); higher = more abundant; growth selection in yeast, the domain comes from the species named. As to conditions: Homo sapiens.
In the case of ENVFHPVECSYCHSESMMGFRYRCQQCHNYQLCQDCFWTGHAGGSHSNQHQMKEYTSWKS, the abundance fitness was -0.107 ± 0.048.

In the case of ENVFHPVECSYCHSESMMGFRYRCQQCHNYQLCQDCFWMGHAGGSHSNQHQMKEYTSWKS, the abundance fitness was -0.072 ± 0.047.

In the case of ENVFHPVECSYCWSESMMGFRYRCQQCHNYQLCQDCFWRGHAGGSHSNQHQMKEYTSWKS, the abundance fitness was -0.584 ± 0.077.

Consider ENVFHPVECSYCNSESMMGFRYRCQQCHNYQLCQDCFWRGHAGGSHSNQHQMKEYTSWKS, for which the abundance fitness is -0.169 ± 0.11.

As for ENVFHPVECSYCSSESMMGFRYRCQQCHNYQLCQDCFWRGHAGGSHSNQHQMKEYTSWKS, the abundance fitness was -0.096 ± 0.073.

For ENVFHPVECSYCDSESMMGFRYRCQQCHNYQLCQDCFWRGHAGGSHSNQHQMKEYTSWKS, the abundance fitness was -0.474 ± 0.079.

Consider YNVFHPVECSYCHSESMMGFRYRCQQCHNYQLCQDCFWRGHAGGSHSNQHQMKEYTSWKS, for which the abundance fitness came to 0.014 ± 0.15.

On to VNVFHPVECSYCHSESMMGFRYRCQQCHNYQLCQDCFWRGHAGGSHSNQHQMKEYTSWKS, for which the abundance fitness was -0.211 ± 0.073.

Turning to ENVFHPVACSYCHSESMMGFRYRCQQCHNYQLCQDCFWRGHAGGSHSNQHQMKEYTSWKS, the abundance fitness is -0.365 ± 0.07.

On to ENVFHPVHCSYCHSESMMGFRYRCQQCHNYQLCQDCFWRGHAGGSHSNQHQMKEYTSWKS, for which the abundance fitness is -0.049 ± 0.12.

As to ENVFHPVKCSYCHSESMMGFRYRCQQCHNYQLCQDCFWRGHAGGSHSNQHQMKEYTSWKS, the abundance fitness is -0.214 ± 0.064.

As to ENVFHPVECSYCHSESMMGFRYRCQQCHNYQLCQDCFWRGHAGGSHENQHQMKEYTSWKS, the abundance fitness was -0.028 ± 0.064.

With ENVFHPVECSYCHSESMMGFRYRCQQCHNYQLCQDCFWRGHAGGSHCNQHQMKEYTSWKS, the abundance fitness is -0.103 ± 0.074.

Regarding ENVFHPVECSYCHSESMMGFRYRCQQCHNYQLCQDCFWRGHAGGSHYNQHQMKEYTSWKS, the abundance fitness was -0.57 ± 0.099.

With ENVFHPVECSYCHSESMMGFRYRCQQCHNYQLCQDCFWRGHAGGSHHNQHQMKEYTSWKS, the abundance fitness is -0.091 ± 0.15.

For ENVFHPVECSYCHSESMMGFRYRCQQCHNYQLCQDCFWRGHAGGSRSNQHQMKEYTSWKS, the abundance fitness was -0.189 ± 0.076.

Consider ENVFHPVECSYCHSESMMGFRYRCQQCHNYQLCQDCFWRGHAGGSASNQHQMKEYTSWKS, for which the abundance fitness is -0.186 ± 0.073.

Turning to ENVFHPVECSYCHSESMMGFRYRCQQCHNYQLCQDCFWRGHAEGSHSNQHQMKEYTSWKS, the abundance fitness came to 0.087 ± 0.065.

ENVFHPVECSYCHSESMMGFRYRCQQCHNYQLCQDCFWRGHATGSHSNQHQMKEYTSWKS: the abundance fitness is -0.139 ± 0.086.

As to ENVFHPVECSYCHSESMMGFRYRCQQCHNYQLCQDCFWRGHAIGSHSNQHQMKEYTSWKS, the abundance fitness was -0.685 ± 0.19.

With ENVFHPVECSYCHSESMMGFRYRCQQCHNYQLCQDCFWRGHAGGSHSNQHQMKEYTIWKS, the abundance fitness was -0.11 ± 0.11.

As for ENVFHPVECSYCHSESMMGFRYRCQQCHNYQLCQDCFWRGHAGGSHSNQHQMKEYTGWKS, the abundance fitness was -0.044 ± 0.08.

As for ENVFHPVECSYCHSESMMGHRYRCQQCHNYQLCQDCFWRGHAGGSHSNQHQMKEYTSWKS, the abundance fitness was 0.151 ± 0.086.

For ENVFHPVECSYCHSESMMGNRYRCQQCHNYQLCQDCFWRGHAGGSHSNQHQMKEYTSWKS, the abundance fitness came out at 0.217 ± 0.065.

Turning to ENVFHRVECSYCHSESMMGFRYRCQQCHNYQLCQDCFWRGHAGGSHSNQHQMKEYTSWKS, the abundance fitness is -0.029 ± 0.043.

Regarding ENVFHPVECSYCHSESMMGFRYRCQGCHNYQLCQDCFWRGHAGGSHSNQHQMKEYTSWKS, the abundance fitness is -0.277 ± 0.058.

Regarding ENVFHPVECSYCHSESMMGFRYRCQMCHNYQLCQDCFWRGHAGGSHSNQHQMKEYTSWKS, the abundance fitness was -0.355 ± 0.086.

As to ENVFHPVECSYCHSESMMGFRYRCQNCHNYQLCQDCFWRGHAGGSHSNQHQMKEYTSWKS, the abundance fitness was 0.022 ± 0.065.

Regarding ENVFHPVECSYCHSESMMGFRYRCQSCHNYQLCQDCFWRGHAGGSHSNQHQMKEYTSWKS, the abundance fitness is -0.024 ± 0.054.

Regarding ENVFHPVECSYCHSEWMMGFRYRCQQCHNYQLCQDCFWRGHAGGSHSNQHQMKEYTSWKS, the abundance fitness was -0.208 ± 0.057.

As to ENVFHPVECSYCHSESMMGFRYRYQQCHNYQLCQDCFWRGHAGGSHSNQHQMKEYTSWKS, the abundance fitness is -0.935 ± 0.23.

Regarding ENVFHPVECSYCHSESMMGFRYRMQQCHNYQLCQDCFWRGHAGGSHSNQHQMKEYTSWKS, the abundance fitness is -0.731 ± 0.12.

For ENVFHPVECSYCHPESMMGFRYRCQQCHNYQLCQDCFWRGHAGGSHSNQHQMKEYTSWKS, the abundance fitness was -0.679 ± 0.094.

On to ENVFHPVECSYCHSESMMGFRYRCQQCHNYQLCQDCFWRGHAGGSHSNQHQMKEFTSWKS, for which the abundance fitness was -0.155 ± 0.098.

With ENVFHPVECSYCHSESMMGFRYRCQQCHNYQLCQDCFWRGHAGGSHSNQHQMKERTSWKS, the abundance fitness was -0.11 ± 0.066.

As for ENVFHPVECSYCHSESMMGFRYRCQQCHNQQLCQDCFWRGHAGGSHSNQHQMKEYTSWKS, the abundance fitness was -0.559 ± 0.085.

On to ENVFHPVECSYCHSESMMGFRYRCQQCHNYQLKQDCFWRGHAGGSHSNQHQMKEYTSWKS, for which the abundance fitness is -0.983 ± 0.2.

Take ENVFHPVECSYCHSESMMGFRYRCEQCHNYQLCQDCFWRGHAGGSHSNQHQMKEYTSWKS: the abundance fitness came to 0.078 ± 0.064.

Consider ENVFHPVECSYCHSESAMGFRYRCQQCHNYQLCQDCFWRGHAGGSHSNQHQMKEYTSWKS, for which the abundance fitness is -0.037 ± 0.056.

Regarding ENVFHPVECSYCHSESEMGFRYRCQQCHNYQLCQDCFWRGHAGGSHSNQHQMKEYTSWKS, the abundance fitness turned out to be 0.116 ± 0.095.

For ENVFHPVECSYCHSESMMGFRYRCQQCHNYQLCQDCIWRGHAGGSHSNQHQMKEYTSWKS, the abundance fitness is -0.087 ± 0.31.

Regarding ENVFHPVECSYCHSESMMGFRYRCQQCHNYQLCQDRFWRGHAGGSHSNQHQMKEYTSWKS, the abundance fitness is -0.695 ± 0.1.

With ENVFHPVECSYCHSESMMGFRYRCQQCHNYQLCQDCFWRGHAGGSHSNHHQMKEYTSWKS, the abundance fitness was -0.141 ± 0.076.
